Assay results published in publication PMC4716841, “Attenuation of AMPK signaling by ROQUIN promotes T follicular helper cell formation” (eLife, 2015).

Molecular target: T1, AMPKα1, endogenous (mouse), catalytic α1 subunit of adenosine monophosphate-activated protein kinase (mouse (endogenous in primary C57BL/6 …, UniProt Q5EG47 1-559))
T1 construct: AMPK catalytic α1 subunit, encoded by Prkaa1, endogenous in mouse cells; In the cells it may stand with AMPK β and γ subunits; also called α1 subunit of AMPK; encoded by Prkaa1; source: endogenous, primary C57BL/6 MEFs (in situ); endogenous, EL4 cell lysate
T1 sequence (Q5EG47 whole entry): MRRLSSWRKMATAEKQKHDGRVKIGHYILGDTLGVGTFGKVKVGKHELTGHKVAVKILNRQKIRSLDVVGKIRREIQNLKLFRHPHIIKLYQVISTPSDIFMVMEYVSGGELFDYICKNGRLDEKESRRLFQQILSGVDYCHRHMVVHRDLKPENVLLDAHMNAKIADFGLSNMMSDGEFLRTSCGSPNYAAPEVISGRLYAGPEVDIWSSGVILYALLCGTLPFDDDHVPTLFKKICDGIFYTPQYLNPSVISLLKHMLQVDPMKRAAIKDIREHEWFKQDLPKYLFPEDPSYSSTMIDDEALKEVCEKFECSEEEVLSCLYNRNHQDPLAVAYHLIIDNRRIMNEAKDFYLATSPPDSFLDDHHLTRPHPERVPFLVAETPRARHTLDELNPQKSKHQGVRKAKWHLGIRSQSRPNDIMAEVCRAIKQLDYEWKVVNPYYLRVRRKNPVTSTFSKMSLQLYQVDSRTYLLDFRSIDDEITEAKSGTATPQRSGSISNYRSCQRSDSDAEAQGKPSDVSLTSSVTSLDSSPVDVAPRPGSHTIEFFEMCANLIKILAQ
Assay: proximity ligation; in situ PLA on primary C57BL/6 MEFs, endogenous proteins; goat anti-AMPKα1 (C20) with rabbit anti-ROQUIN, overnight at 4°C; resting cells or 1 mM arsenite for 1 hr; control PLA GFP:AMPKα1
Conditions: partners not purified

fold PLA frequency over the ROQUIN:AGO2 PLA of earlier work: ≥ 15 fold
B1: ROQUIN, endogenous (mouse) (natural protein, UniProt Q4VGL6 1-1130, looked up)
chain: MPVQAPQWTDFLSCPICTQTFDETIRKPISLGCGHTVCKMCLNKLHRKACPFDQTTINTDIELLPVNSALLQLVGAQIPEQQPITLCSGVEDTKHYEEAKKCVEELALYLKPLSSARGVGLNSTTQSVLSRPMQRKLVTLVHCQLVEEEGRIRAMRAARSLGERTVTELILQHQNPQQLSSNLWAAVRARGCQFLGPAMQEEALKLVLLALEDGSALSRKVLVLFVVQRLEPRFPQASKTSIGHVVQLLYRASCFKVTKRDEDSSLMQLKEEFRTYEALRREHDSQIVQIAMEAGLRIAPDQWSSLLYGDQSHKSHMQSIIDKLQTPASFAQSVQELTIALQRTGDPANLNRLRPHLELLANIDPSPDAPPPTWEQLENGLVAVRTVVHGLVDYIQNHSKKGADQQQPPQHSKYKTYMCRDMKQRGGCPRGASCTFAHSQEELEKFRKMNKRLVPRRPLSASLGQLNEVGLPSAPILSDESAVDLSNRKPPALPNGIASSGSTVTQLIPRGTDPSFDSSLKPVKLDHLSSSAPGSPPDLLESAPKSISALPVNPHPVPPRGPTDLPPMPVTKPIQMVPRGSQLYPAQQADVYYQDPRGSAPAFETAPYQQGMYYTPPPCVSRFVRPPPSAPEPGPPYLDHYSPYLQDRVINSQYGTQPQQYPPMYPAHYDGRRVYPAQSYTREEMFRESPIPIDIPSAAVPSYVPESRERYQQVEGYYPVAPHPAQIRPSYPRDPPYSRLPPPQPHPSLDELHRRRKEIMAQLEERKVISPPPFAPSPTLPPAFHPEEFLDEDLKVAGKYKANDYSQYSPWSCDTIGSYIGTKDAKPKDVVAAGSVEMMNVESKGTREQRLDLQRRAVETSDDDLIPFGDRPTVSRFGAISRTSKTLYQGAGPLQAIAPQGAPTKSINISDYSAYGAHGGWGDSPYSPHANIPPQGHFIEREKMSMAEVASHGKPLLSAEREQLRLELQQLNHQISQQTQLRGLEAVSNRLVLQREVNTLASQPQPPQLPPKWPGMISSEQLSLELHQVEREIGKRTRELSMENQCSVDMKSKLGTSKQAENGQPEPQNKIRTEDLTLTFSDVPNGSALTQENLSLLSNKTSSLNLSEDSEGGGDNNDSQRSGVVSNSAP
notes: ROQUIN (ROQUIN1), encoded by Rc3h1, endogenous in mouse cells; also called ROQUIN1; encoded by Rc3h1; source: endogenous, primary C57BL/6 MEFs (in situ); endogenous, EL4 cell lysate
